# Reference: US20220390449A1, “NEW S[…] FOR THE LATENT FORM OF TOXOPLASMOSIS” (INSERM (INSTITUT NATIONAL DE LA SANTÉ ET DE LA RECHERCHE …, priority 2019, published 2022)
# B1: rBCLA: C-terminal antigenic domain, res 1089-1275 of BCLA (SEQ ID NO:2), expressed in E. coli as recombinant protein (protein)
# chain: MIPGVGDKTEASVLDSIENAVQKVLENLLKAAAGELQPAEAEEARLLVADLKAVVDTAEQVRVEGEAFFRASVDLYEAVKNLRDSEEKLRPLTKGELVDVVRQFLATQIFVQDRASAFLRVFERLAELLAAEQMKAVFAMVEEGVSSSERVARVAGELVPMMKKDRERRYGDLVAVTSWFMRRMEHI
# modifications: Synthetic C-terminal antigenic domain (res 1089-1275)
# Experiments:
# [1] = Solubility of rBCLA recombinantly expressed in E. coli; type: physicochemical; conditions: native, N-terminal poly-histidine tag
# Protocol: Recombinant expression. Transformation was performed using BL21(DE3)-CodonPlus—RIL chemically competent E. coli (Stratagene) which were incubated on ice with 1 μg of the pet30-(a) Cter-BCLA plasmid for 10 minutes, heat shocked at 42° C. for 45 seconds, pre-incubated 45 min in LB at 37° C. then spread on a LB agar plate containing Kanamycin (Kan) and Chloramphenicol (Chlo) and incubated for 12 h. A single colony was then picked to inoculate a LB/Kan/Chlo 50 ml pre-culture grown for 16 h. 5 ml of grown pre-culture were then used to inoculate 1 L flasks of Terrific Broth medium (Formedium) containing Chlo/Kan. Cultures were grown at 37° C. until reaching an OD600 of 0.5-0.8 then induced by adding 0.7 mM IPTG (VWR) and further incubated at 18° C. ON. After incubation, cells were centrifuged 25 min at 3000 G, the supernatant was discarded and the pellet flash frozen in liquid nitrogen and kept at −80° C.
# Lysis. Purification was performed on 3 pellets of 1 L cultures, each resuspended in 50 ml of lysis buffer containing 600 mM NaCl, 50 mM Tris pH 8, 5 mM Beta-mercaptoethanol (BME), 0.2% w/v N-Lauryl Sarkozine and 1 Complete anti protease cocktail (Roche) tab per 50 ml. Lysis was performed using a 10 mini-pulsed sonication (15 sec ON, 30 sec OFF) at 50° amplitude over ice with the lysate never reaching a temperature over 13° C. […]
# [2] = tested on: anti-T. gondii IgG antibodies of mice; assay: Western-blot BCLA serological testing on mice sera; type: binding
# Protocol: Mice and Experimental Infection. 6-weeks-old BALBC/c, CBA, NMRI or Swiss mice were obtained from Janvier Laboratories (Le Genest-Saint-Isle, France). Mouse care and experimental procedures were performed under pathogen free conditions in accordance with established institutional guidance and approved protocols from the Institutional Animal Care and Use Committee of the University Grenoble Alpes (agreement no B3851610006). Female mice were used for all studies. For intraperitoneal (i.p.) infection, tachyzoites were grown in vitro and extracted from host cells by passage through a 27-gauge needle, washed three times in PBS, and quantified with a haemocytometer. Parasites were diluted in Hank's Balanced Salt Solution (Life), and mice were inoculated by the i.p. route with tachyzoites of each strain (in 200 μl) using a 28-gauge needle. For oral gavage of infective cysts, brains from chronically infected mice (76k-GFP-luc and 76k-GFP-luc-Δbcla) were crushed in PBS, the number of cysts was microscopically quantified and the mice were forced fed with 100 μl of brain homogenate containing 20 to 40 cysts using ball-tipped feeding needle. Blood was collected by caudal puncture or by intracardiac puncture when the mice were euthanised. Animal euthanasia was completed in an approved CO2 chamber. For histological analysis of ileum and immunolabeling on histological sections of brains or, the ilea and brains were removed from mice, entirely embedded in a paraffin wax block and cut in 5 μm-thick layers using microtome. For statistical analysis of mice survival data, the Mantel-Cox and Gehan-Breslow-Wilcoxon tests were used.
# Western-blot BCLA serological testing. Single western blot strips were prepared using 15 well 4-12% NuPage gels (Life technologies) loaded with 5 μl of sample at 0.1 mg/ml. The gels were run at 185 v for 40 minutes in MES buffer then electro-transferred at 105 v for 1.5 h on PVDF membranes. The transferred lanes were then cut-out into individualized strips. The strips were then blocked in TTBS with 5% powdered milk (w/v) for 1 h. Serum testing was then performed in TTBS with a dilution of 1/400 of the serum for 1 h at 4° C. The strips were then washed 3 times in TTBS and further incubated 1 h with a 1/7500 dilution of secondary antibody targeting either mouse IgGs or human IgGs and coupled with a phosphatase alkaline enzyme (Promega). […] Bands in the positive sera appear within 1 to 5 minutes. In parallel to the serum testing, a single strip was always used as an internal antigen control for each blot set. After blocking, this strip was incubated for 1 h with a peroxidase coupled anti poly-histidine monoclonal antibody (Sigma) diluted 1/2000 in TTBS. […] For each series of i.p. or orally infected mice, a serum of at least on mouse of each series was checked for Toxoplasma antibodies using Western blot analysis of the IgG immune response using the commercial kit LD bio Toxoplasma mouse IgG (LD bio), with the same anti-mouse IgG-alkaline phosphatase conjugate and chromogenic substrate previously described for BCLA.
# [3] = tested on: trypsin, chymotrypsin, elastase and papain; assay: Limited proteolysis of rBCLA; type: physicochemical; conditions: 1/30 w/w, up to 50 minutes at 37° C.
# Protocol: Limited proteolysis to find antigenic sub-fragments within Cter-BCLA. To recover a highly antigenic sub-fragment of Cter-BCLA, a limited proteolysis on the purified sample was undertaken using trypsin, chymotrypsin, elastase and papain (all Sigma Aldrich). Reactions were carried out in 30 μl reaction volume in 50 mM Tris pH 8.0, 150 mM NaCl, 5 mM BME and 0.5 mM MgCl2. In each reaction, 3 μg of Cter-BCLA were digested by 100 ng of protease (1/30 w/w) over the course of 50 minutes at 37° C. Reactions were stopped at each time point by the addition of 10 μl of SDS PAGE loading buffer followed by 5 minutes heating at 95° C. then kept on ice until loading on the gel.
# [4] = tested on: anti-T. gondii IgG antibodies of mice; assay: Western-blot BCLA serological testing on mice sera; type: binding; remark: listed apart in the source
molecule,measurement,setting,value
B1,solubility on expression in E. coli,[1],natively insoluble
same,reactivity of rBCLA with mice sera (immunoblot),"[2]; FIG. 8a: NMRI mice, i.p. 10^4 tachyzoites COUG and COUG-Δmyr1, 7 days (acute)",not reacting
same,reactivity of rBCLA with mice sera (immunoblot),"[2]; FIG. 8b: CBA mice, i.p. 10^3 tachyzoites RH (type I), 7 days (acute)",not reacting
same,reactivity of rBCLA with mice sera (immunoblot),"[2]; FIG. 9a: Balb/c mice, i.p. 10^3 to 10^6 tachyzoites PruA7 (type II), 42 days",reacting quite proportionally
same,reactivity of rBCLA with mice sera (immunoblot),"[2]; FIG. 9b: CBA mice, i.p. 10^6 tachyzoites ME49 (type II), 80 days",strongly reacting
same,reactivity of rBCLA with mice sera (immunoblot),"[2]; FIG. 9c: NMRI mice, oral 20 cysts 76k-GFP-luc (type II), 22 months",strongly reacting
same,reactivity of rBCLA with mice sera (immunoblot),"[2]; FIG. 9e: CBA mice, i.p. 10^3 tachyzoites RH (type I) followed by pyrimethamine or sulfadiazine treatment, 22 days",very slightly reacting
same,reactivity of rBCLA with mice sera (immunoblot),"[2]; FIG. 9f: NMRI mice, i.p. 10^6 tachyzoites CTG (type III), 42 days",not reacting
same,reactivity of rBCLA with mice sera (immunoblot),"[2]; FIG. 9g: NMRI mice, i.p. 10^6 tachyzoites PruΔku80 (type II), 42 days",not reacting
same,reactivity of rBCLA with mice sera (immunoblot),[2]; FIG. 11a: Swiss mice i.p. infected with T. gondii PCR positive human amniotic fluid (confirmed congenital toxoplasmosis),strongly reacting
same,reactivity of rBCLA with mice sera (immunoblot),"[2]; FIG. 9h: Balb/c mice, i.p. 10^5 tachyzoites 76k-GFP-luc (type II), reactivating or not with corticosteroids, 42 days",strongly reacting
same,reactivity of rBCLA with mice sera (immunoblot),"[2]; FIG. 9d: Balb/c mice, i.p. 10^6 tachyzoites 76k-GFP-luc (type II), 21 days",strongly reacting
same,reactivity of rBCLA with mice sera (immunoblot),"[2]; FIG. 9d: Balb/c mice, i.p. 10^6 tachyzoites 76k-GFP-luc-Δbcla (type II), 21 days",barely reacting
same,degradation by protease (SDS PAGE),[3]; chymotrypsin,quickly degraded
same,degradation by protease (SDS PAGE),"[3]; elastase, trypsin and papain, stable fragments around the 17-kDa marker",partially degraded
same,reactivity of rBCLA with mice sera (immunoblot),"[4]; FIG. 8c: C57BL/6 mice, oral 47 cysts 76k-GFP-luc or 76k-GFP-luc-Δbcla (type II), 8 days (acute)",not reacting
same,reactivity of rBCLA with anti-T. gondii IgM and IgA,"[4]; mice sera, data not shown",not reacting
